Source: the supplement of paper PMC9170038

Tested on: MS2 coat protein
Test: apparent KD of MS2 coat protein; designed switch direction (-1 OFF switch, 1 ON switch): -1; higher = weaker reporter binding
Method in brief: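 Designed RNA switches were transcribed on Illumina chips by stalled E. coli RNA polymerase and titrated with SNAP-549-labelled MS2 coat protein from 0.7 or 1.5 nM, doubling to 3 µM. Step length ran from 0.8–1.5 h at the lowest concentration to 10–20 min at the highest. The apparent KD is the median over clusters for each design, from curve-fitted normalised cluster fluorescence.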

[1] = input ligand: microRNA oligo, concentration not stated
[2] = Eterna round: R95, input ligand: microRNA oligo, concentration not stated
[3] = Eterna round: R95, input ligand: FMN 200 uM
[4] = Eterna round: R95, input ligand: none

| Sequence | apparent KD of MS2 coat protein (input ligand: FMN 200 uM) | apparent KD of MS2 coat protein (input ligand: none) | apparent KD of MS2 coat protein [2] | other results |
| --- | --- | --- | --- | --- |
| UUUAUAUAUGAAGGAUAUACUUAACAUGAGGAUCACCCAUGUGGUGUUGUGAGUGAGUGAGUUUAGUAGAAGGUCAAUUAUUUU [JMF's solution 27] (Eterna round: R96, puzzle: Exclusion NG 2) | 594 nM | 310 nM | – | apparent KD of MS2 coat protein [1]: 237 nM |
| GAUUGACAUGAGGAUCACCCAUGUGAGGAUAUCGGCCGGACCUUGUUAGCUUCCAUCGCGAGAAGGCACAUAGG [Exclusion 1 V32] (puzzle: Exclusion 1) | – | – | 25.2 nM | – |
| AGCUGUGGCCGAGGAUAUCUGAACUCAAUAACCGAAAUAUAAUCGGACAUGAGGAUCACCCAUGUAGAGAAGGCGGUCUCAGCA [Eli eng2 - 080] (Eterna round: R96, puzzle: Exclusion NG 2) | – | – | – | apparent KD of MS2 coat protein [1]: 24.2 nM |
| GGAAAAUGAGGAUAUACAUGUUUGAUACCUCUACGCCCGCAACAUGAGGAUCACCCAUGUAGAAGGCAUGAAAA [Marius] (puzzle: Exclusion 2) | – | – | 13.9 nM | – |
| GACCGGACGUGGUCUGGUAACAUGAGGAUCACCCAUGUUGGUCUAAGAACAUGCCUUUUGCACGCUCGUCUUAUAUU [JR_SV3TOV1_Sub062] (puzzle: Sensor v3, turn-off variant 1) | – | – | 29.6 nM | apparent KD of MS2 coat protein [3]: 66.2 nM; apparent KD of MS2 coat protein [4]: 80.5 nM |
| AAUUUGCAAGCGAGAUCCCACAUGAGGAUCACCCAUGUGCUCGUCUUAUAAGGUACUGUGACAAAAGUCACGGUACC [Mat - Sensor, turn-off var - Eli Mod - D95] (Eterna round: R97, puzzle: Sensor, turn-off variant 1) | 16.6 nM | 16.8 nM | – | – |
| UUUUUAUAUGAAGGAUAUACUUAACAUGAGGAUCACCCAUGUGGUGUUGUGAGUGAGUGAGUUUAGUAGAAGGUCAUUUCUUUU [JMF's solution 78] (Eterna round: R96, puzzle: Exclusion NG 2) | 440 nM | 462 nM | – | apparent KD of MS2 coat protein [1]: 411 nM |
| UGCAUGGUAGGAUAUACGGAGCAUUAGGGUUUGUUAUGUGGACAUGAGGAUCACCCAUGUAGAAGGGCCGUGCU [JL-ex2-2.16 mat747 mod] (puzzle: Exclusion 2) | – | – | 32.6 nM | – |
| AAAGGUGAGUAGGAUAUCCACGCACGAAUAAAGGGAGAAGGACUUACAUGAGGAUCACCCAUGUAAGGUGGUAA [Orte] (puzzle: Exclusion 6) | – | – | 14.3 nM | apparent KD of MS2 coat protein [3]: 17.1 nM; apparent KD of MS2 coat protein [4]: 13.8 nM |
| GGAAGGUCAGGAUAUGCGAGGGAGUGGGAAAUAGGAUGGUAGCAGAAGGGACAUGAGGAUCACCCAUGUUAGGA [JR_Exclu4_Sub0101] (puzzle: Exclusion 4) | – | – | 28 nM | – |
| UUUGUCUGUGUGAGGAUAUACUUUGUUUGGUCGUUGUAGAAGGCACAUGAGGAUCACCCAUGUAUUUUGUUGUG [JR_BME4_Sub015] (puzzle: Brourd's mod of Exclusion 4) | – | – | 26.9 nM | – |
| GGAAUACCCUCGAGUUAUCACAUGAGGAUCACCCAUGUCCCAAGCCUUUUGCUCUGAGCUGCGUAUACGCAGAUGUA [Eternabot (Original) Solution 23] (Eterna round: R97, puzzle: Sensor, turn-off variant 1) | 112 nM | 128 nM | – | – |
| UUGUUGUAUGUAGGAUAUGCAUAUUAUUAUUGUGCAGAAGGACAUGAGGAUCACCCAUGUAUAUUAUUAUUAUAUAUUAUAUAU [Title] (Eterna round: R96, puzzle: Exclusion NG 1) | – | – | – | apparent KD of MS2 coat protein [1]: 27.2 nM |
| UGUGUGAGACAGGAUAUGCCGGAUGAAAUGCAGGUAGAAGGGUCUACAUGAGGAUCACCCAUGUGGCCGGUUGG [Ex6 #75] (Eterna round: R97, puzzle: Exclusion 6) | 18.9 nM | 15.1 nM | – | – |
| UUAAUGUGAGGAUAUCAAGAGAGAAAGAGUAAUGGUAAAUAUGAGAAGGCACAUGAGGAUCACCCAUGUUCUUC [Mat - Exclusion 4 - Mod of JL - D60] (puzzle: Exclusion 4) | – | – | 14.2 nM | – |
| AGUAACAGAGGAUAUACUGUUUUAUGUGUUUAUUAUUUUAAACAUGAGGAUCACCCAUGUAGAAGGCUGAAUAA [JMF 82] (puzzle: Exclusion 2) | – | – | 40.3 nM | – |
| CCCUCACUUGAGGAUCACCCAAGUCAGGAUAUCUCCCGCCCAACACCAUCCGGGCGCCAGAGAAGGGACUCAAA [Soenonor] (Eterna round: R97, puzzle: Exclusion 1) | 24.4 nM | 17.5 nM | – | – |
| UAUAUAUAGUAAGGAUAUGUAUAUAAUUUAUAAACAGAAGGUACUGACAUGAGGAUCACCCAUGUUUUAGUGUGGGCAUGUAGA [JMF's solution 55] (Eterna round: R96, puzzle: Exclusion NG 1) | – | – | – | apparent KD of MS2 coat protein [1]: 64.4 nM |
| CAAAUUGCAGGAUAUACUGGGCCAGAGCCAUCGUGUAUUCCACAUGAGGAUCACCCAUGUAGAAGGGCACGUAC [Aqueran] (puzzle: Exclusion 2) | – | – | 23.8 nM | – |
| UAUUUGCAAGCGAGAUCCCACAUGAGGAUCACCCAUGUUCUUGGAAAGUACAGAAUUACUGUACAAGCUCGUCUUCU [mod-Eli/newD-last] (Eterna round: R97, puzzle: Sensor, turn-off variant 1) | 18.9 nM | 20.4 nM | – | – |
| AAUAGCUGAGGAUAUACAUGAGGAUCACCCAUGUAUUAGUAGGCUGGGAAUAAAUCGUGUAGAAGGCAGGAUGA [Ceerge] (puzzle: Exclusion 3) | – | – | 16.7 nM | – |
